Data on three molecules can be found in PMC13181292 (2026).

Series [1] deals with CLEC-2 C-type lectin-like domain (Mus musculus) (UniProt Q9JL99). Put plainly: SPR. The settings on record: cited from earlier work.
In series [2] the target is CLEC-2 C-type lectin-like domain (Homo sapiens) (UniProt Q9P126). Put plainly: SPR. To be noted: cited from earlier work.
Series [3] deals with the molecule itself. Put plainly: divalent nanobody Nb2-2 (100 nM).

Chain of CLEC-2 C-type lectin-like domain (Homo sapiens) (Q9P126 109-217): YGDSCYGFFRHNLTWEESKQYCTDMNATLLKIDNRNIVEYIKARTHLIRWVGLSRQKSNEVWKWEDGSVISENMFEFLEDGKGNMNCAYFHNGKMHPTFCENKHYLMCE
Chain of CLEC-2 C-type lectin-like domain (Mus musculus) (Q9JL99 109-217): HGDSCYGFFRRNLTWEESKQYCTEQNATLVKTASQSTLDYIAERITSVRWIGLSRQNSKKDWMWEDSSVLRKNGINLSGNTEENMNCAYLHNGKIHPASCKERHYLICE

With “CLEC-2 C-type lectin-like domain (from UniProt Q9JL99)”, the Kd – broadly, the equilibrium constant for the complex coming apart – in series [1] was 499 nM.

On to “CLEC-2 C-type lectin-like domain (from UniProt Q9P126)”, for which, in series [2], the equilibrium dissociation constant (Kd) was 278 nM.

B1: SNAP-tag-GPVI and HaloTag-GPVI coexpressed on CHO-K1 cells (receptor)
chain: QSGPLPKPSLQALPSSLVPLEKPVTLRCQGPPGVDLYRLEKLSSSRYQDQAVLFIPAMKRSLAGRYRCSYQNGSLWSLPSDQLELVATGVFAKPSLSAQPGPAVSSGGDVTLQCQTRYGFDQFALYKEGDPAPYKNPERWYRASFPIITVTAAHSGTYRCYSFSSRDPYLWSAPSDPLELVVTGTSVTPSRLPTEPPSPVAEFSEATAELTVSFTNEVFTTETSRSITASPKESDSPAGPARQYYTKGNLVRICLGAVILIILAGFLAEDWHSRRKRLRHRGRAVQRPLPPLPPLPLTRKSNGGQDGGRQDVHSRGLCS
modifications: SNAP-tag labeled with SNAP-Surface Alexa Fluor-647; HaloTag labeled with Janelia Fluor-549
On to B1, for which the koff (usually a measure of how fast the partners let go of each other) in series [3] was determined as 0.95 s⁻¹.
